Assay results: article PMC13429012 (Structure (London, England : 1993), 2016)
Numbering of substitutions follows the chain as printed. Names may count otherwise. One block for each binder: values may come before it.

What was measured:
[1] = molecular target: Rvb2(E166K) (Saccharomyces cerevisiae, UniProt Q12464 1-471, E166K); test: SEC
[2] = molecular target: Rvb2 (Saccharomyces cerevisiae, UniProt Q12464 1-471); test: SEC
Rvb2, sequence (Q12464 whole entry): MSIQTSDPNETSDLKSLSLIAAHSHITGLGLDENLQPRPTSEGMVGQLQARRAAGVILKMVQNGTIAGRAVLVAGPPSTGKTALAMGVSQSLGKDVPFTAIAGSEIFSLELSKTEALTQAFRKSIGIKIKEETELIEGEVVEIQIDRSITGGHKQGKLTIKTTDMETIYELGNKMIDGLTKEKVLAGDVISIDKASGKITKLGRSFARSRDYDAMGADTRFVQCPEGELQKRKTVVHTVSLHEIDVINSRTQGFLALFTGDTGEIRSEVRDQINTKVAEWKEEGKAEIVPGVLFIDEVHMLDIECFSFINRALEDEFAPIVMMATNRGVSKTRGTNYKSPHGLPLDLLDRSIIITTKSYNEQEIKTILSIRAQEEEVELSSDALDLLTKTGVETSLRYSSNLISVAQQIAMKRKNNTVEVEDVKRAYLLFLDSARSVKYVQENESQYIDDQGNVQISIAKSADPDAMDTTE

Rvb2(E166K), sequence (Q12464 whole entry E166K): as the sequence (Q12464 whole entry) above, with E166K counted along it

B1: Rvb1 (natural protein, Saccharomyces cerevisiae, UniProt Q03940 1-463, looked up)
chain: MVAISEVKENPGVNSSNSGAVTRTAAHTHIKGLGLDESGVAKRVEGGFVGQIEAREACGVIVDLIKAKKMSGRAILLAGGPSTGKTALALAISQELGPKVPFCPLVGSELYSVEVKKTETLMENFRRAIGLRIKETKEVYEGEVTELTPEDAENPLGGYGKTISHVIVGLKSAKGTKTLRLDPTIYESIQREKVSIGDVIYIEANTGAVKRVGRSDAYATEFDLETEEYVPLPKGEVHKKKEIVQDVTLHDLDVANARPQGGQDVISMMGQLLKPKKTEITEKLRQEVNKVVAKYIDQGVAELIPGVLFIDEVNMLDIEIFTYLNKALESNIAPVVVLASNRGMTTVRGTEDVISPHGVPPDLIDRLLIVRTLPYDKDEIRTIIERRATVERLQVESSALDLLATMGTETSLRYALQLLAPCGILAQTSNRKEIVVNDVNEAKLLFLDAKRSTKILETSANYL
binding result [1]: binds

B2: Rvb1(R180E) (natural protein, Saccharomyces cerevisiae, UniProt Q03940 1-463, looked up)
chain: B1 chain with R180E
binding result [2]: binds

B3: Rvb1(E150K) (natural protein, Saccharomyces cerevisiae, UniProt Q03940 1-463, looked up)
chain: B1 chain with E150K
binding result [2]: binds

The remaining lines, values ahead:

binding result [2]: binds
B4: Rvb1(E146R) (natural protein, Saccharomyces cerevisiae, UniProt Q03940 1-463, looked up)
chain: B1 chain with E146R

binding result [2]: binds
B5: Rvb1(K161E) (natural protein, Saccharomyces cerevisiae, UniProt Q03940 1-463, looked up)
chain: B1 chain with K161E
